The subject of series [1] is CC(C)(COP(=O)(O)OP(=O)(O)OC[C@H]1O[C@@H](n2cnc3c(N)ncnc32)[C@H](O)[C@@H]1OP(=O)(O)O)[C@@H](O)C(=O)NCCC(=O)NCCSC(=O)c1ccccc1. Put plainly: steady-state kinetics. It counts as biochemical, Pseudomonas aeruginosa. The note with it: pH 7.5; 25.0 °C.
Series [2] deals with T1, PA1618 (Pseudomonas aeruginosa, UniProt Q9I3A4). Put plainly: X-ray crystal structure. Format: biochemical.
Series [3] deals with T1, PA1618. Put plainly: X-ray crystal structure. Format: biochemical. The source holds these as a separate data set.
The target of series [4] is T1, PA1618. Put plainly: steady-state competitive inhibition of benzoyl-CoA hydrolysis. Format: biochemical.
Substrate in series [5]: CC(C)(COP(=O)(O)OP(=O)(O)OC[C@H]1O[C@@H](n2cnc3c(N)ncnc32)[C@H](O)[C@@H]1OP(=O)(O)O)[C@@H](O)C(=O)NCCC(=O)NCCSC(=O)/C=C/c1ccc(O)cc1
The series is described as follows: steady-state kinetics. The note with it: pH 7.5; 25.0 °C. It counts as biochemical, Pseudomonas aeruginosa.

Substrate in series [6]: CC(C)(COP(=O)(O)OP(=O)(O)OC[C@H]1O[C@@H](n2cnc3c(N)ncnc32)[C@H](O)[C@@H]1OP(=O)(O)O)[C@@H](O)C(=O)NCCC(=O)NCCSC(=O)c1cc(O)c2ccccc2c1O
Put plainly: steady-state kinetics. Format: biochemical, Pseudomonas aeruginosa. The note with it: pH 7.5; 25.0 °C.

Substrate in series [7]: CC(C)(COP(=O)(O)OP(=O)(O)OC[C@H]1O[C@@H](n2cnc3c(N)ncnc32)[C@H](O)[C@@H]1OP(=O)(O)O)[C@@H](O)C(=O)NCCC(=O)NCCSC(=O)c1ccccc1
Put plainly: steady-state kinetics. Format: biochemical, Pseudomonas aeruginosa. The note with it: pH 7.5; 25.0 °C. This is another data set of the same source.

Substrate in series [8]: CCCCCC(=O)SCCNC(=O)CCNC(=O)[C@H](O)C(C)(C)COP(=O)(O)OP(=O)(O)OC[C@H]1O[C@@H](n2cnc3c(N)ncnc32)[C@H](O)[C@@H]1OP(=O)(O)O
Put plainly: steady-state kinetics. To be noted: pH 7.5; 25.0 °C. It counts as biochemical, Pseudomonas aeruginosa.

Substrate in series [9]: CC(C)(COP(=O)(O)OP(=O)(O)OC[C@H]1O[C@@H](n2cnc3c(N)ncnc32)[C@H](O)[C@@H]1OP(=O)(O)O)[C@@H](O)C(=O)NCCC(=O)NCCSC(=O)c1ccc(O)cc1
Put plainly: purified protein. Format: biochemical, Pseudomonas aeruginosa. The note with it: pH 7.5; 25.0 °C.

In general, Km refers to the substrate concentration at which the rate is half of its maximum. The kcat is the number of substrate molecules converted per active site and unit of time at saturation. For orientation: kcat/Km means the turnover number divided by the Michaelis constant. Broadly, the Ki is a measure of affinity in units of concentration, obtained from inhibition or displacement.

Turning to “PA1618 (Pseudomonas aeruginosa PAO1; Q49A)”, in series [1], the Km was 5.0 ± 0.3 µM, the kcat was 0.022 ± 0.003 s⁻¹ and the kcat/Km was found to be 4400 M⁻¹ s⁻¹.
The molecule `CC(C)(COP(=O)(O)OP(=O)(O)OC[C@H]1O[C@@H](n2cnc3c(N)ncnc32)[C@H](O)[C@@H]1O)[C@@H](O)C(=O)NCCC(=O)NCCOC(=O)c1ccccc1` [Benzoyl-OdCoA] yielded a Ki in series [2] of 19 ± 3 µM.
Consider `CC(C)(COP(=O)(O)OP(=O)(O)OC[C@H]1O[C@@H](n2cnc3c(N)ncnc32)[C@H](O)[C@@H]1OP(=O)(O)O)[C@@H](O)C(=O)NCCC(=O)NCCSCC(=O)c1ccccc1` [Phenacyl-CoA], for which the Ki in [3] stood at 35 ± 5 µM.
The molecule `CC(C)(COP(=O)(O)OP(=O)(O)OC[C@H]1O[C@@H](n2cnc3c(N)ncnc32)[C@H](O)[C@@H]1OP(=O)(O)O)[C@@H](O)C(=O)NCCC(=O)NCCSCC(=O)c1ccc(O)cc1O` [2,4-Dihydroxyphenacyl-CoA] came in with a Ki in [4] of 12 ± 1 µM.
For `CCCCCCCCCCC(=O)SCCNC(=O)CCNC(=O)[C@H](O)C(C)(C)COP(=O)(O)OP(=O)(O)OC[C@H]1O[C@@H](n2cnc3c(N)ncnc32)[C@H](O)[C@@H]1OP(=O)(O)O` [Undecanyl-CoA], the Ki in series [4] (read-out: PA1618 Ki) amounted to 3.4 ± 0.3 µM.

B1: PA1618 (Pseudomonas aeruginosa PAO1) (protein)
chain: MSLWRQTPDLEQLNASQKNSIGDLLGIRFEAFDDESLTASMPVDSRTHQPFGLLHGGASVVLAESLGSMASYLCVDTSQYYCVGLEVNANHLRGLRSGRVTAVARAIHLGRTTHVWDIRLSGDDGKPSCIARLTMAVVPLAGRAG
As for B1, the Km came to 2.7 ± 0.2 µM in series [5]; 2.1 ± 0.1 µM in series [6]; 12 ± 1 µM in series [7]; 20 ± 2 µM in series [8]; 3.6 ± 0.3 µM in series [9]. Further, the kcat in series [5] came to 2.5 ± 0.1 s⁻¹; in series [6], 0.55 ± 0.01 s⁻¹; in [7] it was 56 ± 1 s⁻¹; in series [8] it was 0.11 ± 0.01 s⁻¹; in series [9], 9.3 ± 0.2 s⁻¹. Also, the kcat/Km in [5] worked out at 930000 M⁻¹ s⁻¹; in series [6] it was 280000 M⁻¹ s⁻¹; in series [7], 4.6e+06 M⁻¹ s⁻¹; in series [8] it was 5200 M⁻¹ s⁻¹; in series [9], 3.1e+06 M⁻¹ s⁻¹.

Source of the values: paper PMC6328252 (Chembiochem : a European journal of chemical biology, 2017).
